In article PMC6929039 one finds Kd data, which are given here for 2 sequences.

Values joined by “and” are separate entries in the source; they are usually repeats but may differ in a detail not shown here. Equal values may be shown once.

Series [1] has as its target Concanavalin A (Con A) internal_change (UniProt P02866). Kind of series: BLI. Particulars: after the 20-nt 5' primer: every T = mannose-clicked C8-alkyne-dU (4), binding buffer, salt, pH and temperature not given in the material (hemagglutination: 30 min preincubation at RT).
Series [2] has the same target. Kind of series: particle flow cytometry. Particulars: after the 20-nt 5' primer: every T = mannose-clicked C8-alkyne-dU (4), binding buffer, salt, pH and temperature not given in the material (hemagglutination: 30 min preincubation at RT).
[3] abbreviates: every C = 5-formyl-dC (2), primer unmodified.

For the sequence “GATCCCAGTCCGAAGTAATCGTTGCATCTGCACGACTGGTGAGCTTGAGTGGCAGAAGAACTTGTGCAAACGGCTATAGG [ConA-3-1]”, the dissociation constant (Kd) was found to be 5.8 nM in series [1] (setting [3]) and 20 nM in series [2] (setting [3]).

As to “GATCCCAGTCCGAAGTAATCGTTGCATCTGCACGACTGGTGAGCTTGAGTGGCAGAAGAACTTGTGCAAACGGCTATAGG [ConA-3-1m]”, the Kd in series [1] (C natural) was 3.2 nM and 5.3 nM; in series [2] (C natural) it was 17 nM.

One may read the Kd as a measure of binding affinity in units of concentration.
